Data from the supplement of paper PMC9233669.
Variants at the floor of the assay were thinned out.

Columns and labels:
biotinyl-Trp-oxazolone = experiment: self-aminoacylation, catalytic enhancement (BWO) (fold over background); higher = more active; k-Seq, kA / k0A0; sequences stand for … in GGGAAUGGAUCCACAUCUACGAAUUC…UUCACUGCAGACUUGACGAAGCUG
Procedure, shortened: (§1)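 Mutagenized RNA pools (0.43 μM; 21-nt variable region) were treated with 2–1250 μM of each biotinyl-aminoacyl-oxazolone. Conditions were 50 μL HEPES/NaCl/KCl/MgCl2/CaCl2 buffer, 5% acetonitrile, pH 6.9–7.0, room temperature, 90 minutes. Catalytic enhancement, the median kA relative to the uncatalyzed rate, was derived from streptavidin capture, qPCR and Illumina sequencing.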

biotinyl-Met-oxazolone = experiment: self-aminoacylation, catalytic enhancement (BMO) (fold over background); higher = more active; k-Seq, kA / k0A0; sequences stand for … in GGGAAUGGAUCCACAUCUACGAAUUC…UUCACUGCAGACUUGACGAAGCUG
Procedure, shortened: as §1

biotinyl-Ile-oxazolone = experiment: self-aminoacylation, catalytic enhancement (BIO) (fold over background); higher = more active; k-Seq, kA / k0A0; sequences stand for … in GGGAAUGGAUCCACAUCUACGAAUUC…UUCACUGCAGACUUGACGAAGCUG
Procedure, shortened: as §1

biotinyl-Phe-oxazolone = experiment: self-aminoacylation, catalytic enhancement (BFO) (fold over background); higher = more active; k-Seq, kA / k0A0; sequences stand for … in GGGAAUGGAUCCACAUCUACGAAUUC…UUCACUGCAGACUUGACGAAGCUG
Procedure, shortened: as §1

biotinyl-Val-oxazolone = experiment: self-aminoacylation, catalytic enhancement (BVO) (fold over background); higher = more active; k-Seq, kA / k0A0; sequences stand for … in GGGAAUGGAUCCACAUCUACGAAUUC…UUCACUGCAGACUUGACGAAGCUG
Procedure, shortened: as §1

biotinyl-Leu-oxazolone = experiment: self-aminoacylation, catalytic enhancement (BLO) (fold over background); higher = more active; k-Seq, kA / k0A0; sequences stand for … in GGGAAUGGAUCCACAUCUACGAAUUC…UUCACUGCAGACUUGACGAAGCUG
Procedure, shortened: as §1

Row | Sequence | self-aminoacylation (biotinyl-Trp-oxazolone) | self-aminoacylation (biotinyl-Met-oxazolone) | self-aminoacylation (biotinyl-Ile-oxazolone) | self-aminoacylation (biotinyl-Phe-oxazolone) | self-aminoacylation (biotinyl-Val-oxazolone) | self-aminoacylation (biotinyl-Leu-oxazolone)
1 | CCACCCUUCAGGCAAUCGGUC [Fam1B.1 aminoacylation ribozyme variant] | 1.71 | 1.57 | 1.71 | 1.82 | 2.12 | 1.55
2 | CUACUUAAAACAAUAGGUCUG [Fam1A.1 aminoacylation ribozyme variant] | 0.747 | 1.15 | 0.928 | 0.984 | 0.934 | 0.893
3 | CCACACUUCAAGCAACCGGCC [Fam1B.1 aminoacylation ribozyme variant] | 5.33 | 4.29 | 3.66 | 17.4 | 3.58 | 2.77
4 | AUUCACCUAGUUCAUCGCGUG [Fam2.2 aminoacylation ribozyme variant] | 5.66 | 4.88 | 3.27 | 35.7 | 2.99 | 6.91
5 | AAGUUGGCGAAUAGUCGCAAG [Fam3.1 aminoacylation ribozyme variant] | 2.72 | 1.64 | 1.78 | 2.86 | 1.78 | 1.51
6 | AAGUUUGCUAAUGGUCGAAAG [Fam3.1 aminoacylation ribozyme variant] | 0.713 | 0.723 | 0.687 | 1.03 | 0.897 | 0.591
7 | AUACACCUAGGUUAUCGGGUG [Fam2.2 aminoacylation ribozyme variant] | 4.77 | 3.19 | 2.73 | 19.1 | 2.95 | 2.99
8 | AUUACACUGGUCAUCGAGUUA [Fam2.1 aminoacylation ribozyme variant] | 1.38 | 1.05 | 1.18 | 0.876 | 1.02 | 1.09
9 | AGGUUAGCUAAUAGUCGCAAG [Fam3.1 aminoacylation ribozyme variant] | 3.06 | 1.46 | 1.97 | 2.66 | 1.77 | 2.16
10 | AUUCACCUAGGUCAGCGGGGG [Fam2.2 aminoacylation ribozyme variant] | 5.24 | 5.1 | 4.35 | 27.6 | 3.43 | 5.24
11 | CUACUUCAAAGAAUCGAUCUG [Fam1A.1 aminoacylation ribozyme variant] | 0.506 | 0.454 | 0.679 | 0.544 | 0.595 | 0.615
12 | AUUCACAUCGGUCAUCGGGUG [Fam2.2 aminoacylation ribozyme variant] | 5.93 | 8.09 | 4.36 | 57.5 | 4.81 | 9.09
